In PMC11154705, “Spatio-temporal control of asymmetric septum positioning during sporulation in Bacillus subtilis” (The Journal of Biological Chemistry, 2024):
Where “and” joins values, the source holds several entries; their conditions need not be identical. Identical values can stand only once.

Biological target: the molecule itself
Assay: SEC; Superdex S200 16/60 in 50 mM Tris-HCl pH 8.5, 300 mM NaCl; proteins applied separately or mixed (350 ul RefZ 28.8 uM premixed with 350 ul cyt-SpoIIE 15.5 uM, dialyzed overnight, 500 ul loaded); fractions analysed by anti-His Western blot

B1: His-tagged cytosolic part of SpoIIE (375-827 aa) (domain or fragment, B. subtilis, UniProt P37475 375-827, looked up)
chain: YQASDEQTDDSEVDLFLSKITEHSCQTCYKKNRCWVQNFDKTYDLMKQVMLETEEKEYASNRRLKKEFQQYCSKSKQVEELIEDELAHHHAHLTLKKKVQDSRRLVAEQLLGVSEVMADFSREIKREREQHFLQEEQIIEALQHFGIEIQHVEIYSLEQGNIDIEMTIPFSGHGESEKIIAPMLSDILEEQILVKAEQHSPHPNGYSHVAFGSTKSYRVSTGAAHAAKGGGLVSGDSYSMMELGARKYAAAISDGMGNGARAHFESNETIKLLEKILESGIDEKIAIKTINSILSLRTTDEIYSTLDLSIIDLQDASCKFLKVGSTPSFIKRGDQVMKVQASNLPIGIINEFDVEVVSEQLKAGDLLIMMSDGIFEGPKHVENHDLWMKRKMKGLKTNDPQEIADLLMEEVIRTRSGQIEDDMTVVVVRIDHNTPKWASIPVPAIFQNKQEIS
notes: SpoIIE, Bacillus subtilis, cytosolic part, residues 375-827; Elutes as dimers, tetramers and higher oligomers; also called cyt-SpoIIE; not shown: His-tag, N-terminal, kept
Q: For B1, which “stoichiometry N” value is on record?
A: 2 and 4
